One assay relates to STAT5. The assay is described as follows: Fli1 protein by western blot in IL-15-stimulated splenic NK cells with STAT5 inhibitor or vehicle. The assay is classed as cell-based, mouse. To be noted: 100 μM inhibitor vs vehicle control (DMSO). As to the method:
(§1) For plate-bound antibody stimulation experiments, ˜5×10^5 isolated NK cells were stimulated with […] precoated antibody against NK1.1 (PK136) for 4 hours in complete media containing Brefeldin A (1:1000; BioLegend) and Monensin (2 uM; BioLegend). Cells were cultured in media alone as a negative control. In cytokine stimulation experiments, isolated NK cells were incubated with various concentrations of mouse IL-15 or IL-2, in the presence or absence of 100 μM CAS 285986-31-4 STAT5 inhibitor (Millipore Sigma).
(§2) Protein was extracted from enriched primary splenic NK cells using Pierce RIPA buffer (Thermo-Fisher) with Halt protease inhibitor cocktail (Thermo-Fisher) and protein concentration was quantified using the Pierce BCA Protein Assay kit (Thermo-Fisher). Samples were electrophoresed on NuPage Novex 4-12% Bis-Tris Protein Gels, transferred to PVDF membranes, and blocked for one hour at room temperature with 5% w/v nonfat milk in 1× TBS and 0.1% Tween-20. Immunoblots were performed using rabbit anti-Fli1 (Abcam ab133485), rabbit anti-β-actin (Cell Signaling CST4970), and rabbit anti-GAPDH (Millipore Sigma G9545). Proteins were detected using the SuperSignal West Pico PLUS ECL kit (Thermo-Fisher) and visualized using the Azure Biosystems c280 imager. Band density was quantified using ImageJ version 1.53.

Assay [1] concerns splenic NK cells. The settings on record: 3 hours after cytokine stimulation ex vivo; published RNA-seq datasets (GSE140044); cited from earlier work.
Assay [2] deals with splenic NK cells. The assay is described as follows: Fli1 protein by immunoblot of purified splenic NK cells cultured with IL-2 or IL-15. The assay is classed as cell-based, mouse. To be noted: for Fli1 protein induction: 48 h culture with increasing doses of cytokine. As to the method:
as §1, §2

`O=C(N/N=C/c1coc2ccccc2c1=O)c1cccnc1` [STAT5 inhibitor]: the “reduction of Fli1 protein” value with STAT5 is recorded as about 50%. In the case of “IL-18: cytokine used to stimulate NK cells ex vivo”, the Fli1 transcripts result with splenic NK cells [1] is on record as “decreased Fli1 expression”.

B1: IL-12: cytokine used to stimulate NK cells ex vivo (protein, UniProt P29459 23-219; P29460 23-328, looked up)
Interleukin-12 subunit alpha: RNLPVATPDPGMFPCLHHSQNLLRAVSNMLQKARQTLEFYPCTSEEIDHEDITKDKTSTVEACLPLELTKNESCLNSRETSFITNGSCLASRKTSFMMALCLSSIYEDLKMYQVEFKTMNAKLLMDPKRQIFLDQNMLAVIDELMQALNFNSETVPQKSSLEEPDFYKTKIKLCILLHAFRIRAVTIDRVMSYLNAS
Interleukin-12 subunit beta: IWELKKDVYVVELDWYPDAPGEMVVLTCDTPEEDGITWTLDQSSEVLGSGKTLTIQVKEFGDAGQYTCHKGGEVLSHSLLLLHKKEDGIWSTDILKDQKEPKNKTFLRCEAKNYSGRFTCWWLTTISTDLTFSVKSSRGSSDPQGVTCGAATLSAERVRGDNKEYEYSVECQEDSACPAAEESLPIEVMVDAVHKLKYENYTSSFFIRDIIKPDPPKNLQLKPLKNSRQVEVSWEYPDTWSTPHSYFSLTFCVQVQGKSKREKKDRVFTDKTSATVICRKNASISVRAQDRYYSSSWSEWASVPCS
On to B1, for which the Fli1 transcripts entry in the assay on splenic NK cells [1] is given as “decreased Fli1 expression”.

B2: IL-15: mouse IL-15 cytokine used to stimulate splenic NK cells (protein, UniProt P48346 49-162, looked up)
Interleukin-15: NWIDVRYDLEKIESLIQSIHIDTTLYTDSDFHPSCKVTAMNCFLLELQVILHEYSNMTLNETVRNVLYLANSTLSSNKNVAESGCKECEELEEKTFTEFLQSFIRIVQMFINTS
B2: the Fli1 transcripts result with splenic NK cells [1] is “induced Fli1 transcripts”. For the same molecule, the Fli1 protein induction entry with splenic NK cells [2] was “induced by both IL-2 and IL-15 in a dose-dependent manner”. Besides, the “Fli1 protein induced, IL-15 compared with IL-2” value with splenic NK cells [2] (48 h culture, at each dose) was “more Fli1 protein than IL-2 at each dose”.

B3: IL-2: mouse IL-2 cytokine used to stimulate splenic NK cells (protein, UniProt P04351 21-169, looked up)
Interleukin-2: APTSSSTSSSTAEAQQQQQQQQQQQQHLEQLLMDLQELLSRMENYRNLKLPRMLTFKFYLPKQATELKDLQCLEDELGPLRHVLDLTQSKSFQLEDAENFISNIRVTVVKLKGSDNTFECQFDDESATVVDFLRRWIAFCQSIISTSPQ
With B3, the Fli1 transcripts entry in the assay on splenic NK cells [1] is given as “induced Fli1 transcripts”. In the assay with splenic NK cells [2], the Fli1 protein induction result is “induced by both IL-2 and IL-15 in a dose-dependent manner”.
